The values that follow come from publication doi:10.1101/2025.03.05.641625.

Test [1] concerns the target SARS-CoV-2 core RTC with nsp13.1 bound (RTC-nsp13.1) (SARS-CoV-2) (UniProt P0DTD1). In words: magnetic tweezers.
Test [2] deals with SARS-CoV-2 core replication-transcription complex (nsp12-polymerase, nsp7, nsp8) (SARS-CoV-2) (UniProt P0DTD1). In words: magnetic tweezers.

On to “SARS-CoV-2 nsp13-helicase (wild type) (from UniProt P0DTD1 5325-5925) (enzyme)”, for which the values for the Ka in test [1] and in test [2] were 4.6e+08 M⁻¹ and 2.3e+08 M⁻¹, respectively.
